The values that follow come from publication PMC11423790, “Structural Insights into the Diversity and DNA Cleavage Mechanism of Fanzor”.

Holding throughout (conditions): protein: recombinant; tags: 10xHis-MBP N-terminal; blunt DNA 54 bp; R-loop
For series [1], the target named is T1, SpuFz1 (Spizellomyces punctatus ATCC 48900, UniProt A0A0L0H5U9 1-622). In words: cryo-EM structure; State I, 8-bp heteroduplex; RNP purification buffer 20 mM HEPES pH 7.5, 150 mM NaCl, 2 mM MgCl2, 4.5 mM TCEP, 4 C; ternary complex assembly conditions not in the material.
For series [2], the target named is T1, SpuFz1. In words: cryo-EM structure; State V, 15-bp heteroduplex, lid down; RNP purification buffer 20 mM HEPES pH 7.5, 150 mM NaCl, 2 mM MgCl2, 4.5 mM TCEP, 4 C; ternary complex assembly conditions not in the material.
The target of series [3] is T1, SpuFz1. In words: cryo-EM structure; State IV, dsDNA unwound on RuvC; RNP purification buffer 20 mM HEPES pH 7.5, 150 mM NaCl, 2 mM MgCl2, 4.5 mM TCEP, 4 C; ternary complex assembly conditions not in the material.
The target of series [4] is T1, SpuFz1. In words: cryo-EM structure; State VI, 15-bp heteroduplex, weak lid density; RNP purification buffer 20 mM HEPES pH 7.5, 150 mM NaCl, 2 mM MgCl2, 4.5 mM TCEP, 4 C; ternary complex assembly conditions not in the material.

T1 sequence (A0A0L0H5U9 entry or part of it): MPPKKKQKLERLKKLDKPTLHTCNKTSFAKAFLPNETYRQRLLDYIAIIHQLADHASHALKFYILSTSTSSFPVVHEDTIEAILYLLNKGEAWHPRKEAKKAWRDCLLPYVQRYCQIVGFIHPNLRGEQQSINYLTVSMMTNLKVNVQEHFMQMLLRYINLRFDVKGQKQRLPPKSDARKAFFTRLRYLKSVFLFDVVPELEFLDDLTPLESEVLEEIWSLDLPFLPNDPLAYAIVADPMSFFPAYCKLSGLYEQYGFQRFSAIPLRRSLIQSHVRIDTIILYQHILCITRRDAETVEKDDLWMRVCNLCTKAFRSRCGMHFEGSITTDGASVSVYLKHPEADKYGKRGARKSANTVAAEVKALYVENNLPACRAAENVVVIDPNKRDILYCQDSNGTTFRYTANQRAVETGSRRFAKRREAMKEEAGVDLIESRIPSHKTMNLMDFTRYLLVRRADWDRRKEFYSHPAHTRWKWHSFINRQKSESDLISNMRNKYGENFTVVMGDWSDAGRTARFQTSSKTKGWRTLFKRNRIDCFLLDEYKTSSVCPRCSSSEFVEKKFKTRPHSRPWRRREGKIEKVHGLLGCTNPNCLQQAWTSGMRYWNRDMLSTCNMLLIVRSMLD

B1: SpuFz1 omegaRNA + ds2 (mixed)
RNA: GUUUUCCGAGCCGGUUGUCGCGCGGUUCAAUCCCUGGUGCGGGUGCUAGUGCCAAUACCCACCGGCUCCGCACUAUCUAUAGGUUAUGA
DNA 1: ATTCGAGCTCGGTACCCGGGCATATCTATAGGTTATGAAATCAAATTACAAATA
DNA 2: TATTTGTAATTTGATTTCATAACCTATAGATATGCCCGGGTACCGAGCTCGAAT
modifications: phosphorothioates, TS partially modified, NTS unmodified
On to B1, for which the binding result in series [1] is “binds”.

B2: SpuFz1 omegaRNA + ds5 (mixed)
RNA: B1 RNA
DNA 1: B1 DNA 1
DNA 2: B1 DNA 2
modifications: phosphorothioates, TS fully modified, NTS unmodified
As for B2, the binding result in series [2] was “binds”.

B3: SpuFz1 omegaRNA + ds3 (mixed)
RNA: B1 RNA
DNA 1: B1 DNA 1
DNA 2: B1 DNA 2
modifications: phosphorothioates, NTS partially modified, TS unmodified
On to B3, for which the binding result in series [3] was “binds”.

B4: SpuFz1 omegaRNA + ds6 (mixed)
RNA: B1 RNA
DNA 1: B1 DNA 1
DNA 2: B1 DNA 2
modifications: phosphorothioates, NTS fully modified, TS unmodified
Regarding B4, in series [4], the binding result is “binds”.
